Test results taken from patent US6541623.

Target: Interleukin-1 receptor on human fibroblasts (NHDF, normal human dermal fibroblasts) (human)
Experiment: cell-based or functional assay

Interleukin-1 receptor on human fibroblasts (NHDF, normal human dermal fibroblasts) (human), sequence (P14778 18-569): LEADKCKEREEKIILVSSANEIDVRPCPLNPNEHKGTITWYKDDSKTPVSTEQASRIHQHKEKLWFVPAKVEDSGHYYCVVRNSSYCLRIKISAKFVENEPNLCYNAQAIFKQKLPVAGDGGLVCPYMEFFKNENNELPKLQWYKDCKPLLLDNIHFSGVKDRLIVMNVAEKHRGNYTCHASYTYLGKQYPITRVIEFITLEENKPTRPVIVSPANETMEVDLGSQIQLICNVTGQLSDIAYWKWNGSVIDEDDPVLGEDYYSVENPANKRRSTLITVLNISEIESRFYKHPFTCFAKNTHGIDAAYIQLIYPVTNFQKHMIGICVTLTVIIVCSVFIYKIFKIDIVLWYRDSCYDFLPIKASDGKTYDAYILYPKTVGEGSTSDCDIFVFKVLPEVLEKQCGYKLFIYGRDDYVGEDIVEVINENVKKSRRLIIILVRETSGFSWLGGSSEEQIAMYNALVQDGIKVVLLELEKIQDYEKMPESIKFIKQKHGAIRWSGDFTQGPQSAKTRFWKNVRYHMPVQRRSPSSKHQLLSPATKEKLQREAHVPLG

IL-1 Hy1 Receptor Antagonist, non-tagged / preparation not specified (from UniProt Q9UBH0 1-155) (ligand)
inhibition of IL-1β stimulated PGE2 production in CCD 1098 human fibroblast cells (PGE2 ELISA): 40 to 60 % inhibition
